Data: PMC11973759 (Journal for Immunotherapy of Cancer, 2025)
Where no end group is shown, it is not given here.

B1: biotinylated TAMpep (peptide)
chain: VLTTGLPALISWIKRKRQQ
modifications: also: biotin, position not given here

Columns and labels:
biotinylated TAMpep = molecular target: B1; assay: SPR
[1] = molecular target: CD18 cysteine-rich domain (Cloud-Clone); assay: SPR

Binder | Kd (biotinylated TAMpep) [nM] | Kd [1] [nM]
CD18 I-domain (Cloud-Clone) (domain or fragment) GYPIDLYYLMDLSYSMLDDLRNVKKLGGDLLRALNEITESGRIGFGSFVDKTVLPFVNTHPDKLRNPCPNKEKECQPPFAFRHVLKLTNNSNQFQTEVGKQLISGNLDAPEGGLDAMMQVAACPEEIGWRNVTRLLVFATDDGFHFAGDGKLGAILTPNDGRCHLEDNLYKRSNEFDYPSVGQLAHKLAENNIQPIFAVTSRMVKTYEKLTEIIPKSAVGELSEDSSNVVHLIKNAYNKL | 4.7 | –
B1 | – | 0.185
